Assay results reported in patent publication CN116203146A (BEIJING DONGFANG BIOTECH CO LTD, dated 2023).
Where a chain is given by its changes, count along the chain named. Like-named read-outs stand apart in the source and are kept apart here.

B1: MA-Ⅰ 鼠源抗LILRB4单克隆抗体 (mouse IgG1/Cκ) (antibody)
heavy: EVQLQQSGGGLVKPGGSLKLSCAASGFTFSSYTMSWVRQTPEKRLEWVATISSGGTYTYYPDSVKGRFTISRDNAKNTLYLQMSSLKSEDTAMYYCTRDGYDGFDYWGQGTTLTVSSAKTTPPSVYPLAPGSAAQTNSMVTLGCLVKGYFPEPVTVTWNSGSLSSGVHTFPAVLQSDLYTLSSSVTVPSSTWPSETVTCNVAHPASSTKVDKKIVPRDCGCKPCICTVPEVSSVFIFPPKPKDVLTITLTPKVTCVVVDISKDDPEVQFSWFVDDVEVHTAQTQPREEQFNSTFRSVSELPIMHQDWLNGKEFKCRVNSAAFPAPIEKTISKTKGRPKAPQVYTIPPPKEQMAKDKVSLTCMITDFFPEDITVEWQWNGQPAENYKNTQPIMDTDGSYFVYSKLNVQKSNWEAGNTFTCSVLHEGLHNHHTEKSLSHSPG
light: DIVMTQTTLSLPVSPGDQASISCRSSQSLAHSNGNTYLHWYLQKPGQSPKLLIYKVSNRFSGVPDRFSGSGSGTDFTLKISRVEAEDLGVYFCSQSTLVPTFGGGTKLEIKADAAPTVSIFPPSSEQLTSGGASVVCFLNNFYPKDINVKWKIDGSERQNGVLNSWTDQDSKDSTYSMSSTLTLTKDEYERHNSYTCEATHKTSTSPIVKSFNRNEC
B2: MB-Ⅰ 鼠源抗LILRB4单克隆抗体 (mouse IgG1/Cκ) (antibody)
heavy: QVQLQESGAELVKPGASVKLSCKASGYTFTNYWMHWVKQRPGQGLEWIGEINPSNGRTNYNEKFKTKATLTVDKSSSTAYMQLSSLTSEDSAVYYCARWGQLGLREGYYAVDYWGQGTSVTVSSAKTTPPSVYPLAPGSAAQTNSMVTLGCLVKGYFPEPVTVTWNSGSLSSGVHTFPAVLQSDLYTLSSSVTVPSSTWPSETVTCNVAHPASSTKVDKKIVPRDCGCKPCICTVPEVSSVFIFPPKPKDVLTITLTPKVTCVVVDISKDDPEVQFSWFVDDVEVHTAQTQPREEQFNSTFRSVSELPIMHQDWLNGKEFKCRVNSAAFPAPIEKTISKTKGRPKAPQVYTIPPPKEQMAKDKVSLTCMITDFFPEDITVEWQWNGQPAENYKNTQPIMDTDGSYFVYSKLNVQKSNWEAGNTFTCSVLHEGLHNHHTEKSLSHSPG
light: DIVMTQSPSSLSASLGDRVTISCRASQDISNYLNWYQQKPDGTVKLLIYYTSRLHSGVPSRFSGSGSGTDYSLTISNLEQEDIATYFCQQGNTLPPTFGGGTKLEIKADAAPTVSIFPPSSEQLTSGGASVVCFLNNFYPKDINVKWKIDGSERQNGVLNSWTDQDSKDSTYSMSSTLTLTKDEYERHNSYTCEATHKTSTSPIVKSFNRNEC
B3: 人源化抗LILRB4单克隆抗体HA-Ⅱ (human IgG1/Cκ) (antibody, V domains shown)
VH: EVQLVESGGGLVKPGGSLRLSCAASGFTFSSYTMSWVRQAPGKGLEWVATISSGGTYTYYPDSVKGRFTISRDNAKNSLYLQMNSLRAEDTAVYYCARDGYDGFDYWGQGTTVTVSS
VL: DIVMTQTPLSLSVTPGQPASISCRSSQSLAHSNGNTYLHWYLQKPGQSPQLLIYKVSNRFSGVPDRFSGSGSGTDFTLKISRVEAEDVGVYFCSQSTHVPTFGGGTKVEIKR
B4: 人源化抗LILRB4单克隆抗体HA-Ⅰ (human IgG1/Cκ) (antibody, V domains shown)
VH: B3 VH with A49S
VL: B3 VL with F92Y
B5: 人源化抗LILRB4单克隆抗体HA-Ⅲ (human IgG1/Cκ) (antibody, V domains shown)
VH: B3 VH with A97T
VL: B3 VL with Q50K

Tests used:
[1] = biological target: T1, 人单核细胞白血病细胞(THP-1)表面LILRB4 (human, UniProt Q8NHJ6 22-448); experiment: cell-based or functional assay
[2] = biological target: T1, 人单核细胞白血病细胞(THP-1)表面LILRB4; experiment: cell-based or functional assay; remark: listed apart in the source

Binder	IC50, inhibition of ARG1 secretion by THP-1 cells in the presence of ApoE (arginase activity kit) [1] [µg/mL]	IC50, inhibition of ARG1 secretion by THP-1 cells in the presence of ApoE (arginase activity kit) [2] [µg/mL]
B1	23.9	
B2	46	
B3		250
B4		31.2
B5		98.5
